Data on 7 molecules can be found in CN118525034A (INTERVET INT BV, dated 2024).

The target of assay [1] is 犬IL-31RA ECD-10His (犬 (canine)). The assay can be described thus: ELISA, IL-31RA ECD coated at 1 µg/mL, biotinylated canine IL-31 titrated, HRP-streptavidin. On the technique in general: ELISA stands for enzyme-linked immunosorbent assay.
For assay [2], the target named is T1, 犬IL-31RA ECD-10His (犬 (canine)).
T1 chain: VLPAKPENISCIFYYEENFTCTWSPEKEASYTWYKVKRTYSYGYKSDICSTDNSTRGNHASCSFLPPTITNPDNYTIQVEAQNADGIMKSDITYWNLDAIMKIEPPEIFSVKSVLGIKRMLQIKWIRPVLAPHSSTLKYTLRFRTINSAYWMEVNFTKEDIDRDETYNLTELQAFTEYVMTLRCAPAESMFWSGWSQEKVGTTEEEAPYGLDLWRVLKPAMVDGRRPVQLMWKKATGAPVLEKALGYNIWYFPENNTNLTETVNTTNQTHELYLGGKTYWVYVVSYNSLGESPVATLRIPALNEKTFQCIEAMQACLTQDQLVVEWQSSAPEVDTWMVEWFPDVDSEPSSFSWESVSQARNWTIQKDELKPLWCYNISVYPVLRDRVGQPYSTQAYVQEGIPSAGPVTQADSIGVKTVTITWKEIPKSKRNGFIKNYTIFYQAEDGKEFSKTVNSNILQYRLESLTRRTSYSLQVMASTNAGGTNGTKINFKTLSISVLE
The assay can be described thus: Octet BLI, biotinylated canine IL-31RA on SA biosensor, mAb 100-3.13 nM, 1:1 model.

Assay [3] has as its target T1, 犬IL-31RA ECD-10His. Nature of the assay: Octet BLI; upper end of the range, tied to 85C10 by Table 2. Background: Biolayer interferometry detects binding as a change in optical thickness at a sensor tip.
Assay [4] has as its target T1, 犬IL-31RA ECD-10His. Nature of the assay: Octet BLI, biotinylated canine IL-31RA on SA biosensor.
The target in assay [5] is T1, 犬IL-31RA ECD-10His. The assay can be described thus: Octet BLI; lower end of the range, tied to 224G3 by Table 2.

With 犬IL-31 (ligand), the EC50 in assay [1] was 0.55 ng/mL.

B1: 85C10 (antibody, V domains shown)
VH: EFQLQQSGPELVKPGASVKISCKASGYSFTDYSINWVKQSNGKSLEWIGVINPNYGTSSHNQKFKGKATMTVDQSSSTAYMQLNSLTSEDSAVYYCARALDDYYFYWYFDVWGIGTTVTVSS
VL: DVVMTQTPLSLPVSLGDQASISCRSSQSLIHTNGNTYLHWYLQKPGQSPKLLIYKVSNRFSGVPDRFSGSGSGTDFTLKISRLEAEDLGVYFCSQSTHVPLTFGAGTKLELR
Consider B1, for which, in the assay with 犬IL-31RA ECD-10His [2], the Kd amounted to 0.851 nM, the koff was 0.000363 s⁻¹ and the kon was determined as 427000 M⁻¹ s⁻¹. Further, the Kd with 犬IL-31RA ECD-10His [3] is 0.85 nM.

B2: 218D9 (antibody, V domains shown)
VH: QVTLKESGPGILQPSQTLSLTCSFSGFSLSTFGRGVGWIRQPSGKGLDWLTHIWWDDDKYYNPALKSRLTISKDTSKNQVFLKIANVDTADTATYYCARIAGGLRRAPYAMDSWGQGTSVTVSS
VL: DVVMTQTPLSLPVSLGDQASISCRSSQSLVHTNGNTYLHWYLQKPGQSPKLLIYKVSNRFSGVPDRFSGSGSGTDFTLKISRVEAEDLGVYFCSQTTHVPLTFGAGTKLELK
Turning to B2, the Kd in the assay with 犬IL-31RA ECD-10His [4] is about 0.07 nM. In the assay with 犬IL-31RA ECD-10His [2], the affinity, expressed as Kd, was 0.0698 nM; the koff was determined as 4.63e-05 s⁻¹; the kon turned out to be 664000 M⁻¹ s⁻¹.

B3: 209G5 (antibody, V domains shown)
VH: EVQLQQSVAELVRPGASVKLSCTASGFNIKNTYMHWVKERPEQGLEWIGRIDPANGNSKYAPKFQGKATITTDTSSNTAYLQLSSLTSEDTAIYYCARYYYVSSHFDVWGTGTTVTVSS
VL: DIKMTQSPSSMYASLGERVTITCKASQDINSYLNWFQQKPGKSPKTLIYRADRLVDGVPSRFSGSGSGQDYSLTISSLEYEDMGIYYCLQYDEFPLTFGDGTKLELN
In the assay with 犬IL-31RA ECD-10His [2], B3 returned a Kd of 0.131 nM, a koff of 4.87e-05 s⁻¹ and a kon of 370000 M⁻¹ s⁻¹.

B4: 224G3 (antibody, V domains shown)
VH: EVQLVESGGDLVKPGGSLKLSCAASGFTFSSYGMSWVRQTPDKRLEWVATISNGGSYTYYPDSVKGRFTISRDNAKNTLYMQMSSLKSEDTAMYYCARNEPPDYWGQGTSVTVSS
VL: DIQMTQSPASLSVSVGETVTITCRASENIYSSLAWYQQKQGKSPQLLVYAATNLADGVPSRFSGSGSGTQYSLKINSLQSEDSGNYYCQHFRDTPPTFGGGTKLEIK
Regarding B4, the affinity with 犬IL-31RA ECD-10His [5], expressed as Kd, was 0.001 nM. In the assay with 犬IL-31RA ECD-10His [2], the Kd amounted to 0.000964 nM, the koff is 1.08e-06 s⁻¹ and the on-rate constant (kon) turned out to be 1.12e+06 M⁻¹ s⁻¹.

B5: 65G9 (antibody, V domains shown)
VH: EFQLQQSGPELVKPGASVKISCKASGYSFTDYGMNWLKQINGKSLEWIAIINPNYGTASSNPKFKDKATLTVDHSSSTAYMQLSSLTSEDSAVYYCARAFDGYYFYWYFDVWGTGTTVTVSS
VL: SIVMTQTPKFLLVSAGDRVTITCKASQSVTNDVTWYQQKPGQSPKLLIFSASNRYTGVPDRFTGSGYGTDFTFTISTVQAEDLAVYFCQQDYSSPWTFGGGTKLEIK
For the molecule B5, in the assay with 犬IL-31RA ECD-10His [2], the Kd amounted to 0.451 nM, the koff is 0.000355 s⁻¹ and the kon was 787000 M⁻¹ s⁻¹.

B6: 51F8 (antibody, V domains shown)
VH: EVQLQQSVAELVRPGASVKLSCTASGFNIKNTFIHWVKQRPEQGLEWIGRIDPANGNTKYAPKFQGRATLTADTSSNTAYLQLSSLTSEDTAIYYCARYYYVSSYFDVWGTGTTVTVSS
VL: SIVMTQTPKFLLVSAGDRVTITCKASQSVTNDVTWYQQKPGQSPKLLIYYASNRYTGVPDRFTGSGYGTDFTFTISTVQAEDLAVYFCQQDYSSPFTFGSGTKLEIK
In the assay with 犬IL-31RA ECD-10His [4], B6 yielded a Kd of about 0.2 nM. In the assay with 犬IL-31RA ECD-10His [2], this molecule returned a Kd of 0.207 nM, a koff of 0.000141 s⁻¹ and a kon of 684000 M⁻¹ s⁻¹.

The EC50 is the midpoint of the concentration-response curve. A high value points to a less potent agent. The Kd is the constant that tells how readily two partners part at equilibrium. Higher therefore signals a looser complex. The term koff denotes the rate constant with which the complex falls apart. A higher koff goes with a short-lived complex. By kon is commonly meant a measure of how fast the partners come together. High values mean faster complex formation, low ones slower complex formation.
